Test results taken from patent US20170210809A1 (DYAX, published 2017).
Each block holds one binder with its values, some of them ahead of it.

What was measured:
[1] = target: T1, IGF-1R (insulin-like growth factor 1 receptor) on tumor cells (human, UniProt P08069 31-1367); assay: cell-based or functional assay
[2] = target: T1, IGF-1R (insulin-like growth factor 1 …); assay: FACS on MCF7 cells (n = 1), apparent Kd
[3] = target: T1, IGF-1R (insulin-like growth factor 1 …); assay: FACS on ADRr cells (n = 3), apparent Kd
Procedure: (§1) 1×10⁵ MCF7 cells and 1×10⁵ ADRr cells are incubated at room temperature for 2 hours with the BBA at 2 uM, followed by 12 subsequent 3-fold dilutions. Then using goat anti-HSA-Alexa647 conjugated antibody as the detection antibody, cells are incubated on ice for 40 minutes. Cell binding dissociation constants (measures of binding affinities) of the BBAs on MCF7 and ADRr cells are assessed by FACS and apparent dissociation constants are determined for each BBA. The following results were obtained (also see FIGS. 12a and 12b): […]

[4] = target: IGF-1R and ErbB3 together on tumor cells (MCF7, ADRr, BXPC3) (human) (UniProt P08069); assay: FACS on MCF7 cells (n = 1), apparent Kd
Sequence of IGF-1R and ErbB3 together on tumor cells (MCF7, ADRr, BXPC3) (human) (P08069 31-1367, chain 1 of 2): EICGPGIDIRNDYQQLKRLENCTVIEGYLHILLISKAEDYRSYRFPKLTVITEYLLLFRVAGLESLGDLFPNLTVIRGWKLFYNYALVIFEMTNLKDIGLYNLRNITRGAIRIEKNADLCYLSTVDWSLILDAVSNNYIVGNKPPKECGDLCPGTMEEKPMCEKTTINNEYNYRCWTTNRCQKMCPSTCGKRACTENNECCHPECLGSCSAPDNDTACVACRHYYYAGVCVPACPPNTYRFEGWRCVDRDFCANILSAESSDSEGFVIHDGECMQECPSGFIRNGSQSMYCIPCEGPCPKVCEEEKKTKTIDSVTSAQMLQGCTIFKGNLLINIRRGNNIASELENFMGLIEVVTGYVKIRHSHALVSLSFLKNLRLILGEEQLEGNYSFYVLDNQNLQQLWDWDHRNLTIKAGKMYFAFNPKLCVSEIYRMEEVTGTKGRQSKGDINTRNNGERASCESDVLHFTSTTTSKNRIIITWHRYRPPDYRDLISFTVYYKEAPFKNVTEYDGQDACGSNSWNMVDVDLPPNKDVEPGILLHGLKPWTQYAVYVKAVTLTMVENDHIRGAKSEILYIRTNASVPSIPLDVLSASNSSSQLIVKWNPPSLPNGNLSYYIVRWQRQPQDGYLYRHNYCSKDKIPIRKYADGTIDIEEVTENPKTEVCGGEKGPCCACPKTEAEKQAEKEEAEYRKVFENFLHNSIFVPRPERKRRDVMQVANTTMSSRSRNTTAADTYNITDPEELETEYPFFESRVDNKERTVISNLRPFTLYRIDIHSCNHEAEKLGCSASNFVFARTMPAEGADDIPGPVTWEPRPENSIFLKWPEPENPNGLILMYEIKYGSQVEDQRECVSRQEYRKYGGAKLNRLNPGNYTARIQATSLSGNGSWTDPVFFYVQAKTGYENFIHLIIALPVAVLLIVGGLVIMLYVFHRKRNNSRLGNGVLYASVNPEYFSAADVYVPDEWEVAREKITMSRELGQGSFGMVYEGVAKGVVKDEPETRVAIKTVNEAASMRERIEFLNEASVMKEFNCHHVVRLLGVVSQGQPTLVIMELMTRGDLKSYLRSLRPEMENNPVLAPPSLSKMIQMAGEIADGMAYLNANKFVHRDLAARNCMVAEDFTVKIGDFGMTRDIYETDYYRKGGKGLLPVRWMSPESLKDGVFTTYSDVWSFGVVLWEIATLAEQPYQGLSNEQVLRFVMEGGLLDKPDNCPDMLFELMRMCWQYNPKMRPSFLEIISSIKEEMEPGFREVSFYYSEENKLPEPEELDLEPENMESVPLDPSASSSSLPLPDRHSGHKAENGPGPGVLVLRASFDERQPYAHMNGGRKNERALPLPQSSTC
Sequence of IGF-1R and ErbB3 together on tumor cells (MCF7, ADRr, BXPC3) (human) (P21860 20-1342, chain 2 of 2, further chain): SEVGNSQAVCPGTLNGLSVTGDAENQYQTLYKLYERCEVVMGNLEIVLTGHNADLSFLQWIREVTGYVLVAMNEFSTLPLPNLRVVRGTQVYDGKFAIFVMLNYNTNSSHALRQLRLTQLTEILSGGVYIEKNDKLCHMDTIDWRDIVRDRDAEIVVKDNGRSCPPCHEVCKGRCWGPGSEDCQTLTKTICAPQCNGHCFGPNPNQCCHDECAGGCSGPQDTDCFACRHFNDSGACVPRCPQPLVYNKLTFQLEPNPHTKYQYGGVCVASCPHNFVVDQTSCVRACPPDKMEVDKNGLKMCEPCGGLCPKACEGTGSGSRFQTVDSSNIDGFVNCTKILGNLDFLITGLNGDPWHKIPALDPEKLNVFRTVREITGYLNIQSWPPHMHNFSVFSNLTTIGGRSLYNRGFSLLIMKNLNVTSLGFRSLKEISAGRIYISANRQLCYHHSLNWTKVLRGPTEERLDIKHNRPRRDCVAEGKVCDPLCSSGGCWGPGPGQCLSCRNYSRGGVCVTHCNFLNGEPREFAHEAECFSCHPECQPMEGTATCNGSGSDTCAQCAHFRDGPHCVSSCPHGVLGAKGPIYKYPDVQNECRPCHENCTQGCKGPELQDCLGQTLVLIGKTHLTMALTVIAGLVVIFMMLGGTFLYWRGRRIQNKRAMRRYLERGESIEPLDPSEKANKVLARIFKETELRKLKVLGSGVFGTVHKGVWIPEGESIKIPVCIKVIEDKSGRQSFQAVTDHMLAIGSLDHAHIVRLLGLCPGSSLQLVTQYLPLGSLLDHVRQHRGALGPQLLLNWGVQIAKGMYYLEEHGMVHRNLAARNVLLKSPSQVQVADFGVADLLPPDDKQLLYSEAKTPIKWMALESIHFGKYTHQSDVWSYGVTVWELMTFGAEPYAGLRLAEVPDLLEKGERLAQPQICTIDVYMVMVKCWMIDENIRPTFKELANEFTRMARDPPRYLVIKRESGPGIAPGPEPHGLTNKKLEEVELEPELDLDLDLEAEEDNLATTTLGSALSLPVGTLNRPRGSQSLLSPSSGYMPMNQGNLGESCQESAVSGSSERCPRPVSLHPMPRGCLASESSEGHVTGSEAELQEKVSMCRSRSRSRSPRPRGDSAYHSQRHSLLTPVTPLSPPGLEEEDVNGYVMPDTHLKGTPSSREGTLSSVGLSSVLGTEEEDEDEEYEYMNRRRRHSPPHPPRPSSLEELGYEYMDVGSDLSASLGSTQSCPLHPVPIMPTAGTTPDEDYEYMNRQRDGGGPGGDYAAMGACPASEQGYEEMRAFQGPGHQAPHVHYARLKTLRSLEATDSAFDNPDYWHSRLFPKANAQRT

[5] = target: IGF-1R and ErbB3 together on tumor cells (MCF7, ADRr, BXPC3) (human) (UniProt P08069); assay: FACS on ADRr cells (n = 3), apparent Kd
[6] = target: T2, ErbB3 (HER3) on tumor cells (human, UniProt P21860 20-1342); assay: FACS on ADRr and MCF7 cells
T2 construct: whole, on cells; Endogenous receptor on human tumor cell lines
T2 sequence (P21860 20-1342): as the sequence (P21860 20-1342, chain 2 of 2, further chain) above

[7] = target: T1, IGF-1R (insulin-like growth factor 1 …); assay: FACS on ADRr and MCF7 cells
[8] = target: T2, ErbB3 (HER3) on tumor cells; assay: FACS binding to ADRr cells, y axis 'GaH-A647 Mean', x axis Ab [nM] (log)
[9] = target: T2, ErbB3 (HER3) on tumor cells; assay: FACS on MCF7 cells (n = 1), apparent Kd
[10] = target: T2, ErbB3 (HER3) on tumor cells; assay: FACS on ADRr cells (n = 3), apparent Kd
Procedure: as §1

[11] = target: T2, ErbB3 (HER3) on tumor cells; assay: cell-based or functional assay

T1 sequence (P08069 31-1367): as the sequence (P08069 31-1367, chain 1 of 2) above

B1: AB5-7 IgG2 (antibody, V domains shown)
VH: EVQLLESGGGLVQPGGSLRLSCAASGFTFSVYPMHWVRQAPGKGLEWVSSISSSGGATRYADSVKGRFTISRDNSKNTLYLQMNSLRAEDTAVYYCAKDFYDILTGNAFDIWGQGTMVTVSS
VL: DIQMTQSPSSFSASTGDRVTITCRASQGISSYLAWYQQKPGKAPKLLIYAASTLQSGVPSRFSGSGSGTDFTLTISSLQPEDSATYYCQQYFTFPLTFGGGTKVEIKR
Ki, inhibition of IGF2-induced pAKT formation (ELISA, MCF7 cells) [1]: 0.7 nM

B2: IgG version of SEQ ID NO: 1 (antibody, V domains shown)
VH: EVQLLESGGGLVQPGGSLRLSCAASGFTFSVYPMHWVRQAPGKGLEWVSSISSSGGATRYADSVKGRFTISRDNSKNTLYLQMNSLRAEDTAVYYCAKDFYDILTGNAFDIWGQGTMVTVSS
VL: DIQMTQSPSSFSASTGDRVTITCRASQGISSYLAWYQQKPGKAPKLLIYAASTLQSGVPSRFSGSGSGTDFTLTISSLQPEDSATYYCQQYFTFPLTFGGGTKVEIKR
Kd [2]: 5.6 nM
Kd [3]: 5.1 nM

B7: Ab #6 (MM-121) (antibody, INN chains, looked up, V domains shown)
VH: EVQLLESGGGLVQPGGSLRLSCAASGFTFSHYVMAWVRQAPGKGLEWVSSISSSGGWTLYADSVKGRFTISRDNSKNTLYLQMNSLRAEDTAVYYCTRGLKMATIFDYWGQGTLVTVSS
VL: QSALTQPASVSGSPGQSITISCTGTSSDVGSYNVVSWYQQHPGKAPKLIIYEVSQRPSGVSNRFSGSKSGNTASLTISGLQTEDEADYYCCSYAGSSIFVIFGGGTKVTVL
Ki, inhibition of BTC-induced pErbB3 formation (ELISA, ADRr cells) [11]: 1.1 nM
Ki, inhibition of HRG-induced pErbB3 formation (ELISA, ADRr cells) [11]: 0.1 nM

More lines, now with the values ahead:

Kd [4]: 4.5 nM
Kd [5]: 7.1 nM
binding result [6]: binds
binding result [7]: binds
B3: ILE-10 (bispecific antibody, human IgG2, kappa)
heavy: EVQLLESGGGLVQPGGSLRLSCAASGFTFSVYPMHWVRQAPGKGLEWVSSISSSGGATRYADSVKGRFTISRDNSKNTLYLQMNSLRAEDTAVYYCAKDFYDILTGNAFDIWGQGTMVTVSSASTKGPSVFPLAPCSRSTSESTAALGCLVKDYFPEPVTVSWNSGALTSGVHTFPAVLQSSGLYSLSSVVTVPSSNFGTQTYTCNVDHKPSNTKVDKTVERKCCVECPPCPAPPVAGPSVFLFPPKPKDTLMISRTPEVTCVVVDVSHEDPEVQFNWYVDGVEVHNAKTKPREEQFNSTFRVVSVLTVVHQDWLNGKEYKCKVSNKGLPAPIEKTISKTKGQPREPQVYTLPPSREEMTKNQVSLTCLVKGFYPSDIAVEWESNGQPENNYKTTPPMLDSDGSFFLYSKLTVDKSRWQQGNVFSCSVMHEALHNHYTQKSLSLSPGKGGGGSGGGGSGGGGSLQEVQLLESGGGLVQPGGSLRLSCAASGFTFSAYNMRWVRQAPGKGLEWVSVIYPSGGATRYADSVKGRFTISRDNSKNTLYLQMNSLRAEDTAVYYCARGYYYYGMDVWGQGTLVTVSSASTGGGGSGGGGSGGGGSQSVLTQPPSASGTPGQRVTISCSGSDSNIGRNYIYWYQQFPGTAPKLLIYRNNQRPSGVPDRISGSKSGTSASLAISGLRSEDEAEYHCGTWDDSLSGPVFGGGTKLTVLS
light: DIQMTQSPSSFSASTGDRVTITCRASQGISSYLAWYQQKPGKAPKLLIYAASTLQSGVPSRFSGSGSGTDFTLTISSLQPEDSATYYCQQYFTFPLTFGGGTKVEIKRTVAAPSVFIFPPSDEQLKSGTASVVCLLNNFYPREAKVQWKVDNALQSGNSQESVTEQDSKDSTYSLSSTLTLSKADYEKHKVYACEVTHQGLSSPVTKSFNRGEC
notes: IgG-linked BBA, designed to be functionally dimeric; the numbers of ILE-10 stand on the line that begins with ILE-11; also called Bs14F3 huIgG2

Kd [4]: 0.6 nM
Kd [5]: 0.3 nM
binding result [6]: binds
binding result [7]: binds
B4: ILE-12 (bispecific antibody, human IgG2, kappa)
heavy: EVQLLESGGGLVQPGGSLRLSCAASGFTFSVYPMHWVRQAPGKGLEWVSSISSSGGATRYADSVKGRFTISRDNSKNTLYLQMNSLRAEDTAVYYCAKDFYDILTGNAFDIWGQGTMVTVSSASTKGPSVFPLAPCSRSTSESTAALGCLVKDYFPEPVTVSWNSGALTSGVHTFPAVLQSSGLYSLSSVVTVPSSNFGTQTYTCNVDHKPSNTKVDKTVERKCCVECPPCPAPPVAGPSVFLFPPKPKDTLMISRTPEVTCVVVDVSHEDPEVQFNWYVDGVEVHNAKTKPREEQFNSTFRVVSVLTVVHQDWLNGKEYKCKVSNKGLPAPIEKTISKTKGQPREPQVYTLPPSREEMTKNQVSLTCLVKGFYPSDIAVEWESNGQPENNYKTTPPMLDSDGSFFLYSKLTVDKSRWQQGNVFSCSVMHEALHNHYTQKSLSLSPGKGGGGSGGGGSGGGGSLQEVQLLESGGGLVQPGGSLRLSCAASGFTFSVYDMYWVRQAPGKGLEWVSYIYSSGGDTDYADSVKGRFTISRDNSKNTLYLQMNSLRAEDTATYYCARASTNSIYDAMDVWGQGTTVTVSSASTGGGGSGGGGSGGGGSDIQMTQSPSSVSASVGDRVTITCRASQDITNWLAWYQQKPGKAPTLLIYDASTLQSGVPSRFSGSGSGTDFTLTISSLQPEDFATYFCQQANGFPLTFGGGTKVEIK
light: DIQMTQSPSSFSASTGDRVTITCRASQGISSYLAWYQQKPGKAPKLLIYAASTLQSGVPSRFSGSGSGTDFTLTISSLQPEDSATYYCQQYFTFPLTFGGGTKVEIKRTVAAPSVFIFPPSDEQLKSGTASVVCLLNNFYPREAKVQWKVDNALQSGNSQESVTEQDSKDSTYSLSSTLTLSKADYEKHKVYACEVTHQGLSSPVTKSFNRGEC
notes: IgG-linked BBA, designed to be functionally dimeric; the numbers of ILE-12 stand on the line that begins with ILE-13; also called Bs15F3 huIgG2

EC50 (read off the curve) [8]: ~0.3 nM
Kd [9]: 0.04 nM
Kd [10]: 0.4 nM
B5: IgG version of SEQ ID NO: 44 (antibody, V domains shown)
VH: EVQLLESGGGLVQPGGSLRLSCAASGFTFSVYDMYWVRQAPGKGLEWVSYIYSSGGDTDYADSVKGRFTISRDNSKNTLYLQMNSLRAEDTATYYCARASTNSIYDAMDVWGQGTTVTVSS
VL: DIQMTQSPSSVSASVGDRVTITCRASQDITNWLAWYQQKPGKAPTLLIYDASTLQSGVPSRFSGSGSGTDFTLTISSLQPEDFATYFCQQANGFPLTFGGGTKVEIK

Kd [9]: 0.9 nM
Kd [10]: 1.2 nM
B6: IgG version of SEQ ID NO: 33 (antibody, V domains shown)
VH: EVQLLESGGGLVQPGGSLRLSCAASGFTFSAYNMRWVRQAPGKGLEWVSVIYPSGGATRYADSVKGRFTISRDNSKNTLYLQMNSLRAEDTAVYYCARGYYYYGMDVWGQGTLVTVSS
VL: QSVLTQPPSASGTPGQRVTISCSGSDSNIGRNYIYWYQQFPGTAPKLLIYRNNQRPSGVPDRISGSKSGTSASLAISGLRSEDEAEYHCGTWDDSLSGPVFGGGTKLTVLG
